These results are taken from publication PMC10881398, “O-glycosylation of the transcription factor SPATULA promotes style development in Arabidopsis” (Nature Plants, 2024).

The target in one data set is T1, 6xHis-SPT (SPATULA) (Arabidopsis thaliana, UniProt Q9FUA4 1-373).
T1 sequence: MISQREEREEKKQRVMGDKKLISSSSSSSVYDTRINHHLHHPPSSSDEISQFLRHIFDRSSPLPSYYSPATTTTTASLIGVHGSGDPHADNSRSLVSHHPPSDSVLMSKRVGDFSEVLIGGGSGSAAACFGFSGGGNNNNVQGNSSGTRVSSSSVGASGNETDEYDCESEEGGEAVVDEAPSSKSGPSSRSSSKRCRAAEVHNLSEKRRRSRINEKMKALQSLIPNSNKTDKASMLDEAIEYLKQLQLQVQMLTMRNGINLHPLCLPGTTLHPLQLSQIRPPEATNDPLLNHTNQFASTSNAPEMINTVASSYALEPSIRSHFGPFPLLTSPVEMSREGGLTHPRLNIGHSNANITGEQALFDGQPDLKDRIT
As to the kind of experiment: EMSA; legend: binding abolished; text: strongly abolished; EMSA: 150 ng DNA, '1x' buffer as printed 250 mM Tris-HCl pH 8.0, 500 mM NaCl, 25% glycerol, 10 mM DTT; on ice 20 min; 5% native acrylamide gel, 1x TBE, EB stain. To be noted: protein: recombinant; tags: 6xHis N-terminal (pRSFDuet); chain copies: 2; label: none (EB stain); blunt.

Data set [1] concerns the molecule itself. The data set is described as follows: FRET or BRET; FRET–FLIM in nuclei of co-infiltrated N. benthamiana leaves; donor SPT–EGFP, acceptor RFP fusions; efficiency E = 1 − τDA/τD with SPT–EGFP;RFP–NLS as the donor-only reference; with or without co-expressed SEC–3xHA or SPY–3xHA. (In general: BRET reads energy transfer from a luciferase to a nearby fluorophore.)

For a further data set, the target named is T2, IND–RFP (35S::IND–RFP) (Arabidopsis thaliana, UniProt O81313 1-198).
T2 construct: INDEHISCENT (IND), bHLH transcription factor, Arabidopsis thaliana; also called INDEHISCENT; source: N. benthamiana leaves, Agrobacterium-infiltrated, in nuclei of leaf cells
T2 sequence (looked up): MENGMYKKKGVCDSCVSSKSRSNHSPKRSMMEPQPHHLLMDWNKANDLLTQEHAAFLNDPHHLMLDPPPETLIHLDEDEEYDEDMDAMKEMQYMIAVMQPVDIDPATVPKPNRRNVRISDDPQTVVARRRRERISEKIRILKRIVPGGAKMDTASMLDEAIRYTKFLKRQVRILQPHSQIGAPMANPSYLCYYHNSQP
The description is as above. The settings on record: partners not purified.

The target of the next data set is T3, HEC1–RFP (35S::HEC1–RFP) (Arabidopsis thaliana, UniProt Q9FHA7 1-241).
T3 construct: HECATE 1 (HEC1), bHLH transcription factor, Arabidopsis thaliana; the cloning of this construct is not described; the methods describe the FRET–FLIM constructs of SPT and IND only; also called HECATE 1; source: N. benthamiana leaves, Agrobacterium-infiltrated, in nuclei of leaf cells
T3 sequence (looked up): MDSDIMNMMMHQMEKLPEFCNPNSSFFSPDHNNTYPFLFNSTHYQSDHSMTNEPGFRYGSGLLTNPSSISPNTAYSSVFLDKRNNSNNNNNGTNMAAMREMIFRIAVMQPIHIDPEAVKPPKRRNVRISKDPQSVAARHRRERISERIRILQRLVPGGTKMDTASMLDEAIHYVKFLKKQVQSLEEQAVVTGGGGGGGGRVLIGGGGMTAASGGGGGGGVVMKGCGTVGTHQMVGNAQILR
Described as above. The settings on record: partners not purified.

B1: 171-bp pPID G-box mutant (CACGTG to TGATGA) (dsDNA)
DNA 1: GCACCCCTATAATATGCCTAGAGGAAATAAGAAGAAAAAATAATGGGGAAAAAGAGAAGCTACTGCTACACTTTCAGGTGATGAACAACGTCTCATGATGATCATATATCTTACGTCATCAAGTCCTCTTTTTCTCTCTTTCACTTTTCTGTTTACCTCTCTCACGCGTTG
DNA 2: CAACGCGTGAGAGAGGTAAACAGAAAAGTGAAAGAGAGAAAAAGAGGACTTGATGACGTAAGATATATGATCATCATGAGACGTTGTTCATCACCTGAAAGTGTAGCAGTAGCTTCTCTTTTTCCCCATTATTTTTTCTTCTTATTTCCTCTAGGCATATTATAGGGGTGC
As to B1, in the data set with 6xHis-SPT (SPATULA), the binding result is on record as “no binding”.

B2: SPT–GFP (35S::SPT::GFP) (natural protein, Arabidopsis thaliana, UniProt Q9FUA4 1-373, looked up)
chain: MISQREEREEKKQRVMGDKKLISSSSSSSVYDTRINHHLHHPPSSSDEISQFLRHIFDRSSPLPSYYSPATTTTTASLIGVHGSGDPHADNSRSLVSHHPPSDSVLMSKRVGDFSEVLIGGGSGSAAACFGFSGGGNNNNVQGNSSGTRVSSSSVGASGNETDEYDCESEEGGEAVVDEAPSSKSGPSSRSSSKRCRAAEVHNLSEKRRRSRINEKMKALQSLIPNSNKTDKASMLDEAIEYLKQLQLQVQMLTMRNGINLHPLCLPGTTLHPLQLSQIRPPEATNDPLLNHTNQFASTSNAPEMINTVASSYALEPSIRSHFGPFPLLTSPVEMSREGGLTHPRLNIGHSNANITGEQALFDGQPDLKDRIT
notes: SPATULA (SPT), Arabidopsis thaliana; in the self-association row the second copy carried RFP in place of EGFP (35S::SPT–RFP); also called SPT–EGFP; SPT–RFP (the second copy in the homodimer test); source: N. benthamiana leaves, Agrobacterium-infiltrated, in nuclei of leaf cells
Take B2: the FRET efficiency in data set [1] was 5.7%; with IND–RFP (35S::IND–RFP), 9.6%; with HEC1–RFP (35S::HEC1–RFP), 7.4%.
